Here are results for one molecule from PMC3225088.

In this data set the target is T1, NmtR wild-type (Mycobacterium tuberculosis, UniProt O69711 2-120).
T1 sequence: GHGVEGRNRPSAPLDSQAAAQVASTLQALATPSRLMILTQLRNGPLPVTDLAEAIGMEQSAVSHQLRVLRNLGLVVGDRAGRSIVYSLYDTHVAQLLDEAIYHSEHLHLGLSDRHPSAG
Nature of the data set: fluorescence anisotropy.

B1: nmt operator 30 bp (dsDNA)
DNA 1: GAAATAAATGAACATATGATCATATATTCT
DNA 2: AGAATATATGATCATATGTTCATTTATTTC
B1 yielded a Ka of 2.86e+10 M⁻¹.
